What was measured:
[1] = molecular target: Fzd7-YFP (CMV-Fzd7-EYFP); test: cell-based or functional assay
[2] = molecular target: Fzd7 (endogenous, mouse myogenic cells) (mouse) (UniProt Q61090); test: cell-based or functional assay

Wnt7a (R&D Systems) (ligand) gave a cell polarization of Fzd7-YFP expressing C2C12 cells [1] of 167 % increase, an abundance of triangular polarized C2C12 cells [2] of 111 % increase and a directional persistence of satellite cells on single myofibers (time lapse imaging) [2] of 36 % higher. The mean velocity of satellite cells on single myofibers (time lapse imaging) [2] was 31 % increase, the migration of C2C12 cells in scratch assay [2] was 443 % increase and the migration of satellite cell derived mouse primary myoblasts in scratch assay [2] was 136 % increase.

— patent publication US20170087188A1, “WNT INDUCED MOTILITY AND ENHANCED ENGRAFTMENT OF CELLS” (OTTAWA HOSPITAL RESEARCH INSTITUTE, priority 2014, published 2017)
